Source: a protein production outcome set (Wang et al. 2014)

Test: label from the status in PepcDB records

Row | Sequence | protein production
1 | MWDMKFVDRIDEAARLKDALAREKSSLVVMYGRRRLGKSTLIKRVLSENDVYFLADRSEGQHQRALLAKVIAQVFPDFEKLSYPDWESMFRAVNYRTDKRFTLCLDEFPYLVEQSPELPSVLQKLVDEKQLKYNLVLCGSSQNMMYGLFLDSTAPLYGRADEIMRLTPIRLPYIQEALNLNAMNAIEEYAIWGGVPRYWELRENRISLDDAMWHNILSVNGTLYEEPVKLFQDDVKDIVKTSTIMSYIGTGANRLSEIAARCNEPATNLSRPLKKLVDLGFLEKDVPFGIDEKNAKKSLYKIADPFMAFYYQFVVPNRSFIELGRRLPIEQALTAHFSEYVSMQWEKLCRDAVTGNLVNGVVYGKAKRWWGSVLNEDKKPEQVEFDVMAESLDKKYLLVGECKWTTGENGKQLTAELLRKANLLPFAKNYTIVPVLFLKNAPKDDAGNAMLSENVVELMK | failed
2 | MTTKAVLISSGVATVALLLKLSVPVAVDFSVSRAPILWSSLLSWLKPPYLYVVTNGIIITIVASSKYYRSHHDRDEEDEIVVYGGGGYKIQTEEPIVNQHQASPRILEVKDLDTGAHFGFVVANLEAEELESEAVTAVVFDDEEEEKKIIDSAATAEDEIEEELKSVIMVENSDLVESDVIPPPMMIESENLPPIEKPLVTSRFGHRKLMKASQEGGRALRVTKPKKNETLENTWKMITEGKSTPLTRQLYRRSDTFGRGDSGGVDGEVKPVYKKSDTFRDRTNYYQLAETAKVRKEPSLSQEELNRRVEAFIKKFNEEMKLQRMESLRQYKEITSRGV | failed
3 | AAPPAPAAKPGSPKKRGKTEVNESLLTPRFYTTDFDEMEQLFNAEINKQLNQDEFDALLQEFKTDYNQTHFIRNPEFKEAADKMQGPLRQIFVEFLERSCTAEFSGFLLYKELGRRLKKTNPVVAEIFSLMSRDEARHAGFLNKGLSDFNLALDLGFLTKARKYTFFKPKFIFYATYLSEKIGYWRYITIFRHLKANPEYQVYPIFKYFENWCQDENRHGDFFSALLKAQPQFLNDWKAKLWSRFFCLSVYITMYLNDCQRSAFYEGIGLNTKEFDMHVIYETNRTTARIFPAVPDVENPEFKRKLDRMVDINLKIISIGESNDLPLVKNLKRVPLIAQLVSEIIAAYLMPPIESGSVDFAEFEPKLVY | failed
4 | MTVPWHLVALAFAVCLVVAAPGFLRVYYFVSLCYAGAIAAQSLVFALLFSTTISGWVTLQLLLLLIYGVRLGAFLAVRERNPAYAAELARAERRTAELKLWHQIAIWLGVSLLFTLLFLPALLTLSLQAQGAWPVSTPLGVMIMAVGLWVESLADWQKYRYKAEHPSHYCDTGLYRLVRCPNYLGEMVFWFGVWFSGLSAYGSGGAWTLTLLGMLYILALMTAAAAGLERKQDERYGDRPDYQEYVRSVPILFPWVPLFTLRKLLIRFR | failed
5 | MRPAPSIVEVVAAIIIGSDGSFLLARRPEGKPYAGYWEFPGGKVNPEESLLRALKRELLEELGIHVKHAYPWITRTFTYPHARVRLHFYRVVEWHGEPHPHEDQELSWQFADNVSVEPLLPANAPVLRALALPPVYGITNAAEWGPQIAAARIGHALQKGLRLVQLREKGMRSKALDAFAREVTALAHHYGARILVNSGTGNESLCQELDMDGIHFTSADLMNLSKRPDVEWCAASCHNAEELFRAEQLEMDFAVLAPVLPTLSHPDSPVLGWRKLARIIHGSAIPVYALGGLQSEDLAIAWEHGAHGIALMRRIEQVRGTGQKA | failed
6 | MGVVLIDGSTVRSFVDDEEQFKKSVDERFAALDLNKDGVLSRSELRKAFESMRLLESHFGVDVVTPQDELTNLYDSIFEKFDTDQSGSVDLEEFRSEMKKIVLAIADGLGSCPITMVLDDDDDNFLKKAADLEASKLEKASS | failed
7 | MKTRKIPLRKSVVSNEVIDKRDLLRIVKNKEGQVFIDPTGKANGRGAYIKLDNAEALEAKKKKVFNRSFSMEVEESFYDELIAYVDHKVKRRELGLE | not failed
8 | MRHISPEELIALHDANISRYGGLPGMSDPGRAEAIIGRVQARVAYEEITDLFEVSATYLVATARGHIFNDANKRTALNSALLFLRRNGVQVFDSPELADLTVGAATGEISVSSVADTLRRLYGSAELEHHHHHH | not failed
9 | MNFDSYIFDFDGTLIDTTTCHVKATQSAFKRLNLDEPTEQAILHTYHLNLYNNFKALASHELSFYQIEKLIDEYNHCFSNDEIHQSKEYTGISEVLKFLHNQKKKIFVVSNKETLTTQKYLDYLGLSRFITDSLGVCIKNEDKLLCETIQNLIQKHHLMIGKTVYIGDTAQDIKSANQAHVQTCAVTWGAQSAHELLHEDPHYVVNDPEEFLTIL | failed
10 | MAQFAVIGLGSFGATVATELTKLNHDVIGIDSVKRNVEDLSDQLTHAVIADASDEHVLEELNIQNCETVVVAIGEDIEASILCVLHLKNMGVPQIWVKAKTKAHHMILSHLHVDKIIHPEEDMGVRIAQALNYPMVSRYMALDNDHFIVKVEIPKHLNGVHLLGLINEMSDVKTILLKRGKDIIYEPDPTCPVQSKDILILEGHIDQLKKLSRRFLPHEKTKN | failed
11 | MRSWAIDLEEYLMSKALEGKSPGTVDRYRYELQRLLSYVNKAVRDITEGDISGYMRAYKAIRQVSNQTLKNVRAVYSSFFAWLRDRDRIRRNPMALVEAIKVLEHHHHHH | failed
12 | MKKRAVLILSMMLAAQAAFYTSSNTASAAIGEAVIATDEINVRSGPGLSHEIVSVVSRNESYPILEERGDWVQIQLNGGQKGWVVSWLIKKKSQVSSGSDSASGKVTSSEANLRIRKGPGTSYEVQGVFPEGEQADLLKTDGKWIKISYQNITGWVYSDYVNQGSGAKQSQSSSSHASSSKSGTVGVSTLNVRSTASHQGRIIATLQRNASVTILNEQHGWYEIEFNGQKGWAASHYILEGNKQNSGTSETSSSSEAKRQATIVYEGTNVRSGPSTSSAIVKRTGKGESYPIVSTKGDWYEIKLSNGDSAYVASWVVQTVDQAGSAGDSKSAAPPLAKRSSSGGTIKNKTVVIDAGHGGHDSGTIGTRGTLEKRLTIKTATLLAAKLRADGVNVYMTRNDDSFVSLQSRVATSHYRNADAFISIHYDSFPNASVRGNTAYYYSPSKDRKLAADVQSEIERHSPLPSRGVLFGDYFVLRENKQPAALFELGYLSHPQEEAVVSTNAYRERVTDGIRSGLENYFD | failed
13 | MKIEQLYTGCLAEAAYYIESEGEAIIIDPLRDIQTYVQKIERNNVTLKYIFETHFHADFVSGHLDLAEATGATIVYGPKAETTFNSHIAYDGEKISIGKITLQVLHTPGHTQESSCYLLYDEDGNKHALFTGDTLFIGDVGRPDLAIKSDLTKEDLAGMLYDSLEEKIKPLPDAITIYPAHGAGSACGKNLSKETFDTLGSQKQKNYALKAADKETFIKQVLDDLQPAPSYFNMNALLNKEGPGSVSELIKQGSIAFDVQSFENLQRQTYAVLLDTRDAKEFKKGFIPGSINIGLNGQLAPWAGTLLTNSDKPILIITDPGKEEETIIRLARVGVDQVIGYLKDGYNSWQKANKPEENIETISAAELVEKLDENINILDVRKADEYEKGHLNAAQHLPLDYINDWITTLDKNKTYYVHCAGGYRSVITESILKSRNISNVIDVSGGYGAIKAAMEPTKKRWLNAFFSFMKVK | failed
14 | MEGQENKVLFGLENVHYATYSETDGVITYDTPKPLPGGVEISVEPQGDMIKFYADNIVYYQAPNNQGYEGTLTIASIPEGFATDCLGEELDTVDGVLTEKSDAKPKPFALLFEFDGDVKSVRQVLYNCTASRPTVASSTLEHHHHHH | not failed
15 | MGISPPLTAVSAFGTDVSGNAFIGAGVATLAVLMVLSAFFSSSEIAMFSIPRHRIDALVEEGRSGADAVAALKSDPHRLLITILVGNNLVNIAMSSIATGLFATSMSQGKAVLAATFGVTALVLLFGESAPKSYAVENSESWALSIAKPLQWSERFLYPLVVLFDYLTRAVNQFTGGRAAIESSYVTRSEIQDMIKTGEREGVIEEDEREMLQRIFRFNNTIAKEVMTPRLDVVAVSKTDTIEAAIQTCTQAGHERVPVYDGELDNVIGVVSLEDLVRESLYGETEDAELDDLIEPTLHVPESKNVDDLLQEMQDERVQLVVVIDEFGTTEGLLTAEDITEEIVGEILDGGEDLPIDSVDEDTVRVRGEVNIEEVNEALNIDLPEGEEFETIAGFIFNRAGRLVEEGEAFRFEDIELTVEHVENTRIMKARVQRLDSAAEADANAEVLTADSTGNGA | failed
16 | MAATRLKRRKFPTINEEFYYNQLENGMTVFLIPKESFKETLAVMSSRFGSIDTNFTVNGKKKSYLAGIAHLLEHQLFEMNKQKDAAYEFTKLGAESNAYTTFDKTIYYFSTADNIKKNLDLLQEFTSQINFTDMSIEKEKKIITQEFNMYQDDSDDYLYQVILSKLYPQTSLAEDITGNRDSIDKLTKNNLEENFHYFYQPENLTLLVAGDFDVKRVYKDIVTTQRQLPDRP | failed
